Changes are numbered by the printed parent chain. Values belong to the binder of their own block, whether it stands above or below them.
What was measured:
[1] = molecular target: T1, Strep tagged recombinant human PD-1 (human, UniProt Q15116 25-167, limits assumed); assay: SPR Biacore T200, single cycle kinetics; Strep tagged PD-1 amine coupled to CM-5 (14 RU)
T1 construct: also called Strep tagged human PD-1; not shown: Strep tag
Protocol: Single cycle kinetics assays were used to study the interaction between human PD-1 with Humabody® on a Biacore T200 instrument (GE Healthcare). Strep tagged recombinant human PD-1 was amine coupled to one flow cell of a CM-5 chip to create a low density surface (14 RU) using standard Biacore reagents. For the reference flow cell, a blank immobilisation was carried out. A five-point, three-fold dilution series of each Humabody® was made with a top concentration of 25 nM. The binding kinetics were followed by flowing the Humabody® over the chip surface in HBS EP+ buffer at a flow rate of 30 μl/min. The contact time for each of the association steps was 180 seconds and the dissociation step was 3300 seconds. The data was fitted to a 1:1 binding model after double reference subtraction using the Biacore T200 Evaluation software.

[2] = molecular target: T2, cynomolgus PD-1 recombinant protein (cynomolgus); assay: HTRF binding assay; 2 nM PD-1, anti human-Fc cryptate and anti His-D2
T2 construct: also called cyno PD-1; cynomolgus PD-1 (Acro Biosystems cat no. PD-1-05254)
Protocol: Purified VH were tested for their ability to bind to human PD-1 (R&D Systems cat no. 1086-PD), cynomolgus PD-1 (Acro Biosystems cat no. PD-1-05254) and mouse PD-1 (R&D Systems cat no. 1021-PD) in an HTRF Binding assay format. All reagents and serially diluted VH were prepared in assay buffer containing PBS, 0.1% BSA and 0.4M Potassium Fluoride. Samples or assay buffer (non-specific binding) were incubated with 2 nM human/cynomolgus or mouse PD-1, 1 nM Anti human-Fc Cryptate PAb (Cisbio cat. no. 61HFCKLB) and 30 nM anti His-D2 (CisBio cat no 61HISDLA) in black 384-shallow well assay plates for a minimum of 3 hours at room temperature. Time-resolved fluorescent emission at 620 nm and 665 nm was measured following excitation at 337 nm on the BMG PHERAstar plate reader. The HTRF ratio were calculated ((665 nm emission/620 nm emission)*10000) and the data corrected for (non-specific binding) to give the specific binding signal.

T1 sequence (Q15116 25-167 limits assumed): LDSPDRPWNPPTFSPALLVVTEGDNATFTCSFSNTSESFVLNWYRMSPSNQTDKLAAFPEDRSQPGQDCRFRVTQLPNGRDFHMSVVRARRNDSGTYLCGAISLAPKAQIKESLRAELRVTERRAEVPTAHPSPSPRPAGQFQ

B1: Humabody® 1.80 (VHH)
VHH: EVQLVESGGGLVKPGGSLRLSCAASGFTFSDSSMTWMRQAPGKGLEWVSYISSGGGVKFYADSVKGRFTISRDNAKNSLYLQMNSLRAEDTAVYYCAREAPLRLGESPHDAFDISGQGTMVTVSS
notes: human VH single domain antibody
kon [1]: 176000 M⁻¹ s⁻¹

B2: Humabody® 1.1 (VHH)
VHH: B1 VHH with E1Q, S32Y, S33T, S53T, G56T, V57I, F59Y, A61T, E89D, S115W
notes: human VH single domain antibody; also called clone 1.1
EC50 [2]: 6.3 nM

Results, then the binder that gave them:

EC50 [2]: 4.1 nM
B3: Humabody® 1.92 (VHH)
VHH: B1 VHH with S32E
notes: as for B1

EC50 [2]: 0.75 nM
B4: Humabody® 1.57 (VHH)
VHH: B1 VHH with E1Q, S32N, K58I, E89D
notes: as for B1
